Experiments:
[1] = molecular target: human SIRPαBIT expressed on cells (human) (UniProt P78324); assay: flow cytometry, U937 cells
[2] = molecular target: cynomolgus monkey SIRPα, extracellular domain, Avi-FXa-Fc tag (cynomolgus monkey); assay: SPR, captured biotinylated antigen
[3] = molecular target: human SIRPβ1v1, extracellular domain, Avi-FXa-Fc tag (human); assay: SPR, captured biotinylated antigen
[4] = molecular target: human SIRPβ1v2, extracellular domain, Avi-FXa-Fc tag (human); assay: SPR, captured biotinylated antigen
[5] = molecular target: human SIRPγ, extracellular domain, Avi-FXa-Fc tag (human); assay: SPR, captured biotinylated antigen
Chain of human SIRPγ, extracellular domain, Avi-FXa-Fc tag (human) (chain, as listed by the source limits assumed): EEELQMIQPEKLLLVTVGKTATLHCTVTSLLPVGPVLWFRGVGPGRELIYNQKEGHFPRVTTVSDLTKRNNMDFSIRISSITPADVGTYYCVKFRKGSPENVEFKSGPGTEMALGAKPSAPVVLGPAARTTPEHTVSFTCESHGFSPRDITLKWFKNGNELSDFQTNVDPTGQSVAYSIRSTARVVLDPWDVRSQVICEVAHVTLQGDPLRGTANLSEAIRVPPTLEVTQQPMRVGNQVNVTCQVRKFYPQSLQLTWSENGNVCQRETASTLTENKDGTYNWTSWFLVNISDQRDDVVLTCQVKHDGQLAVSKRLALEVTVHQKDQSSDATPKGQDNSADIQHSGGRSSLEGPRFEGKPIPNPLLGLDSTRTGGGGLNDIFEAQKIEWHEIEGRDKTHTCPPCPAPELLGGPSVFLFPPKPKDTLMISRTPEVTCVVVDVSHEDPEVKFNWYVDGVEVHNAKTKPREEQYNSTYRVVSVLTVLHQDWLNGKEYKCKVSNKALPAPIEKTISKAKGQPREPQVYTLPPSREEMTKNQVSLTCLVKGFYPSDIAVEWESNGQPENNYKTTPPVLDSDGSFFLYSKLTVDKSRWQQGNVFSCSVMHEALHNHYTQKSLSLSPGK

[6] = molecular target: human SIRPα1 extracellular domain 1-370, Avi-FXa-Fc tag (human); assay: SPR, captured biotinylated antigen
Chain of human SIRPα1 extracellular domain 1-370, Avi-FXa-Fc tag (human) (chain, as listed by the source limits assumed): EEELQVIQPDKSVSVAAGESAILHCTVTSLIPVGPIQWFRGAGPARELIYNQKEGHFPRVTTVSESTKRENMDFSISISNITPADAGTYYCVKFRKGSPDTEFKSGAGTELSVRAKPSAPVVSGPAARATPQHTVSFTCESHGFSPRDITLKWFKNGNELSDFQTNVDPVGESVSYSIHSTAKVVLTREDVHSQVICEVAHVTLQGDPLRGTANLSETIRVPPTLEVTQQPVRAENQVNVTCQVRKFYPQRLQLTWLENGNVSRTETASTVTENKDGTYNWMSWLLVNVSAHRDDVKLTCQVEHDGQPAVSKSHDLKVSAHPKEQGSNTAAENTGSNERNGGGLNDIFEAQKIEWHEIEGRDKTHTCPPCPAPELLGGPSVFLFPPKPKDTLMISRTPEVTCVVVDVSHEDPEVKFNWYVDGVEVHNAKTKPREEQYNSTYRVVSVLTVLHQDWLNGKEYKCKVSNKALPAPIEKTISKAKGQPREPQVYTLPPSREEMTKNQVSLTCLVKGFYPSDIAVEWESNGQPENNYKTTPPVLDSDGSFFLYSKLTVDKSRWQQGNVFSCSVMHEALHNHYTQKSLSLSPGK

[7] = molecular target: human SIRPαBIT, extracellular domain 1-370, Avi-FXa-Fc tag (human); assay: SPR, captured biotinylated antigen
Chain of human SIRPαBIT, extracellular domain 1-370, Avi-FXa-Fc tag (human) (chain, as listed by the source limits assumed): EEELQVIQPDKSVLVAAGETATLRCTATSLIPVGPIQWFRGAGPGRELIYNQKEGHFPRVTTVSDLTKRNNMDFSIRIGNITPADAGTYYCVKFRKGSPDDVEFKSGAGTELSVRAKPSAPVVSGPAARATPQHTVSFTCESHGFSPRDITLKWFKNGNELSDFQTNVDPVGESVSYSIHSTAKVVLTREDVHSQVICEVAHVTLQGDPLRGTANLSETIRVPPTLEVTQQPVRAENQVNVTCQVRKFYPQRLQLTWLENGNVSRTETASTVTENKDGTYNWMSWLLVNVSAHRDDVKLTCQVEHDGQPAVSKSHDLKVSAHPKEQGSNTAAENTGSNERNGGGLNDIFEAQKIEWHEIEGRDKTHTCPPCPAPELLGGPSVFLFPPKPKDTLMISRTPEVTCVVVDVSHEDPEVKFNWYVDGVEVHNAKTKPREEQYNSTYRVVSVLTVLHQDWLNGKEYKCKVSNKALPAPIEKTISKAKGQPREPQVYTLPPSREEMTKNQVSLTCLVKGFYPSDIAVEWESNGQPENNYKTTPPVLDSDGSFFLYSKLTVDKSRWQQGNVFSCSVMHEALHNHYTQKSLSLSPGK

[8] = molecular target: human SIRPα1 expressed on cells (human) (UniProt P78324); assay: flow cytometry, ExpiCHO-S cells
Chain of human SIRPα1 expressed on cells (human) (P78324 other isoform, or with tags, fused parts or gaps limits assumed): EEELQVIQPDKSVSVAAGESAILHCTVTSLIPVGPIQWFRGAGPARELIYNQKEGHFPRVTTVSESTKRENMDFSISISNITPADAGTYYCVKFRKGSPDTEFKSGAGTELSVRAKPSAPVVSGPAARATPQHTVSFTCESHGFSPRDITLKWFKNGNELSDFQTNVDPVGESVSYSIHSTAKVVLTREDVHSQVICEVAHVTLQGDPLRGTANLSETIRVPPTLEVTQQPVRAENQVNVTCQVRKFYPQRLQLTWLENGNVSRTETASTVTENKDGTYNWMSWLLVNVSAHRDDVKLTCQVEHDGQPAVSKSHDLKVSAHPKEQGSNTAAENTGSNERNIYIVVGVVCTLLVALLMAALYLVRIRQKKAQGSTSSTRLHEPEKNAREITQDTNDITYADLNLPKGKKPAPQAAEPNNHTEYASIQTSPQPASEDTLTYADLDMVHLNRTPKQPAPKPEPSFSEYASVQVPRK

[9] = molecular target: human SIRPαBIT expressed on cells (human) (UniProt P78324); assay: flow cytometry, ExpiCHO-S cells
[10] = molecular target: cynomolgus monkey SIRPα expressed on ExpiCHO-S cells (cynomolgus monkey); assay: flow cytometry, ExpiCHO-S cells
[11] = molecular target: human SIRPβ1v1, AVI-tagged, biotinylated, monomeric form (human) (UniProt O00241); assay: SPR, captured monomeric antigen
Chain of human SIRPβ1v1, AVI-tagged, biotinylated, monomeric form (human) (O00241 30-371): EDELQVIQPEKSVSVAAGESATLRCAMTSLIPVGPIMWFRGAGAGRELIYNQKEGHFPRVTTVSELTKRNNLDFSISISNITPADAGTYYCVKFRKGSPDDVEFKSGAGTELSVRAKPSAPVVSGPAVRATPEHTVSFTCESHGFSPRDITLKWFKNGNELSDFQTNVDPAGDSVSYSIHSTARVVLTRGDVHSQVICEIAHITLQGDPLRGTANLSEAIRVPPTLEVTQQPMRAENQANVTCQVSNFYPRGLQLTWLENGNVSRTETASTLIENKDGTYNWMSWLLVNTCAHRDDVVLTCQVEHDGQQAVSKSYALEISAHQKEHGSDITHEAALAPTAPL

[12] = molecular target: human SIRPβ1v2, AVI-tagged, biotinylated, monomeric form (human) (UniProt Q5TFQ8); assay: SPR, captured monomeric antigen
Chain of human SIRPβ1v2, AVI-tagged, biotinylated, monomeric form (human) (Q5TFQ8 30-371): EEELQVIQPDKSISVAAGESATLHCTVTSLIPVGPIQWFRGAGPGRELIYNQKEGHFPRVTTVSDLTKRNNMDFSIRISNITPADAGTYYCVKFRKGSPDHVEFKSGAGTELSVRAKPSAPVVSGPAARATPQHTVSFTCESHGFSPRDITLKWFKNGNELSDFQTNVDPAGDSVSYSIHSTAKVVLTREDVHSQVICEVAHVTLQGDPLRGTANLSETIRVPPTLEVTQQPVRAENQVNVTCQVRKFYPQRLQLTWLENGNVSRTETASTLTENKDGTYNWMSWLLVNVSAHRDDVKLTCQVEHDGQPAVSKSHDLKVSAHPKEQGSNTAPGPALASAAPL

Chain of human SIRPαBIT expressed on cells (human) (P78324 31-504 limits assumed): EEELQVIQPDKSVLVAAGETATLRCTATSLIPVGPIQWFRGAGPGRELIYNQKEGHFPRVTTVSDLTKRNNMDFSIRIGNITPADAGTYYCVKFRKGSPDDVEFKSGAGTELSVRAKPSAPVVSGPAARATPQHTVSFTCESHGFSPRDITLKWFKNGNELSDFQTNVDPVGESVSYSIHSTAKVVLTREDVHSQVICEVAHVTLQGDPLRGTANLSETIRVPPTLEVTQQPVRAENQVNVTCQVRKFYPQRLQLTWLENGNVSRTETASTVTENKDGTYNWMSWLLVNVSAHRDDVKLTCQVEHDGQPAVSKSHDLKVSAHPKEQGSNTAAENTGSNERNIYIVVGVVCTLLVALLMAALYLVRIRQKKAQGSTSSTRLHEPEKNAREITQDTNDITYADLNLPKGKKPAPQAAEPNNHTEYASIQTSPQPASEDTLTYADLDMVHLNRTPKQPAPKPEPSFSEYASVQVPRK
Chain of cynomolgus monkey SIRPα, extracellular domain, Avi-FXa-Fc tag (cynomolgus monkey) (chain, as listed by the source limits assumed): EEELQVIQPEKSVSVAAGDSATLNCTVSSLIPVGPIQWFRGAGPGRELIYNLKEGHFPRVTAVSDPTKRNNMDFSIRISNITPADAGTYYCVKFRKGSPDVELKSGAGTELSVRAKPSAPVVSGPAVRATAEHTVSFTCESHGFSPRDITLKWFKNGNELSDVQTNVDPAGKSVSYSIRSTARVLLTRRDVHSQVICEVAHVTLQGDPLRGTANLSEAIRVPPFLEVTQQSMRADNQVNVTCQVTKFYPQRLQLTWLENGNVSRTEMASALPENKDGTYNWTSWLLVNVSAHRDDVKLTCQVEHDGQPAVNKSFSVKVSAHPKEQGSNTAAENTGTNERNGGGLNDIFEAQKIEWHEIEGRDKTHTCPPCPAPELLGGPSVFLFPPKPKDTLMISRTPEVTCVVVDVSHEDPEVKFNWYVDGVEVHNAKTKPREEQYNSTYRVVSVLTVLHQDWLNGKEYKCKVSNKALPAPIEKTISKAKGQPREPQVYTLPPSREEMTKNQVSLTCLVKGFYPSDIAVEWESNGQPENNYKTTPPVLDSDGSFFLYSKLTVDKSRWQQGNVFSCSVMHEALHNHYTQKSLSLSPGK
Chain of human SIRPβ1v1, extracellular domain, Avi-FXa-Fc tag (human) (chain, as listed by the source limits assumed): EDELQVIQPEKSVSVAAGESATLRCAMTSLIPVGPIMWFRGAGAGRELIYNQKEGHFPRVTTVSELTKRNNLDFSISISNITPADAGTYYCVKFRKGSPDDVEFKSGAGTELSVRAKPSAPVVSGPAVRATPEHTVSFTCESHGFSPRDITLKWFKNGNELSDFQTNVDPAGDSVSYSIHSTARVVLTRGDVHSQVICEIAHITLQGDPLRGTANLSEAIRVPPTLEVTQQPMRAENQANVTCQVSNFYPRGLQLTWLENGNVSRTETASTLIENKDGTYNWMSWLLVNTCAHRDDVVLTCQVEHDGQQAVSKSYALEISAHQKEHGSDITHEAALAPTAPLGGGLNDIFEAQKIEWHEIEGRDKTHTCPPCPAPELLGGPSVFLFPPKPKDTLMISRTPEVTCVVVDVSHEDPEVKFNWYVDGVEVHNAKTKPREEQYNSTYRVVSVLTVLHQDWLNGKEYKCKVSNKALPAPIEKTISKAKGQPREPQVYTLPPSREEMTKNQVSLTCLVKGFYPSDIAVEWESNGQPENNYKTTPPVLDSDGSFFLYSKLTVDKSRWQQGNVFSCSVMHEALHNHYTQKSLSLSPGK

SE5A5 (mouse IgG1κ, Biolegend, purified anti-human CD172a/b) (antibody)
EC50 [1]: 1.48 µg/mL | Kd [2]: 1.8 nM | Kd [3]: 0.0382 nM | Kd [4]: 0.287 nM | Kd [5]: 2.66 nM | Kd [6]: 0.0154 nM | Kd [7]: 0.798 nM | EC50 [8]: 0.09 µg/mL | EC50 [9]: 0.62 µg/mL | EC50 [10]: 0.05 µg/mL | Kd [11]: 0.0631 nM | Kd [12]: 0.358 nM
